Data reported in US20220281969A1 (ANTLERA THERAPEUTICS, published 2022).
Residue numbers refer to the chain shown, from its start. Values belong to the binder of their own block, whether it stands above or below them.

Key:
[1] = target: full-length LRP6 receptor expressed on the surface of cell lines (UniProt O75581 20-1613, limits assumed); assay: cell-based or functional assay
[2] = target: T1, recombinant mouse LRP5-His chimera (mouse, UniProt Q91VN0 31-1383); assay: single-point ELISA, IgG1 on coated antigen
T1 construct: extracellular domain; not shown: His tag
T1 sequence (looked up): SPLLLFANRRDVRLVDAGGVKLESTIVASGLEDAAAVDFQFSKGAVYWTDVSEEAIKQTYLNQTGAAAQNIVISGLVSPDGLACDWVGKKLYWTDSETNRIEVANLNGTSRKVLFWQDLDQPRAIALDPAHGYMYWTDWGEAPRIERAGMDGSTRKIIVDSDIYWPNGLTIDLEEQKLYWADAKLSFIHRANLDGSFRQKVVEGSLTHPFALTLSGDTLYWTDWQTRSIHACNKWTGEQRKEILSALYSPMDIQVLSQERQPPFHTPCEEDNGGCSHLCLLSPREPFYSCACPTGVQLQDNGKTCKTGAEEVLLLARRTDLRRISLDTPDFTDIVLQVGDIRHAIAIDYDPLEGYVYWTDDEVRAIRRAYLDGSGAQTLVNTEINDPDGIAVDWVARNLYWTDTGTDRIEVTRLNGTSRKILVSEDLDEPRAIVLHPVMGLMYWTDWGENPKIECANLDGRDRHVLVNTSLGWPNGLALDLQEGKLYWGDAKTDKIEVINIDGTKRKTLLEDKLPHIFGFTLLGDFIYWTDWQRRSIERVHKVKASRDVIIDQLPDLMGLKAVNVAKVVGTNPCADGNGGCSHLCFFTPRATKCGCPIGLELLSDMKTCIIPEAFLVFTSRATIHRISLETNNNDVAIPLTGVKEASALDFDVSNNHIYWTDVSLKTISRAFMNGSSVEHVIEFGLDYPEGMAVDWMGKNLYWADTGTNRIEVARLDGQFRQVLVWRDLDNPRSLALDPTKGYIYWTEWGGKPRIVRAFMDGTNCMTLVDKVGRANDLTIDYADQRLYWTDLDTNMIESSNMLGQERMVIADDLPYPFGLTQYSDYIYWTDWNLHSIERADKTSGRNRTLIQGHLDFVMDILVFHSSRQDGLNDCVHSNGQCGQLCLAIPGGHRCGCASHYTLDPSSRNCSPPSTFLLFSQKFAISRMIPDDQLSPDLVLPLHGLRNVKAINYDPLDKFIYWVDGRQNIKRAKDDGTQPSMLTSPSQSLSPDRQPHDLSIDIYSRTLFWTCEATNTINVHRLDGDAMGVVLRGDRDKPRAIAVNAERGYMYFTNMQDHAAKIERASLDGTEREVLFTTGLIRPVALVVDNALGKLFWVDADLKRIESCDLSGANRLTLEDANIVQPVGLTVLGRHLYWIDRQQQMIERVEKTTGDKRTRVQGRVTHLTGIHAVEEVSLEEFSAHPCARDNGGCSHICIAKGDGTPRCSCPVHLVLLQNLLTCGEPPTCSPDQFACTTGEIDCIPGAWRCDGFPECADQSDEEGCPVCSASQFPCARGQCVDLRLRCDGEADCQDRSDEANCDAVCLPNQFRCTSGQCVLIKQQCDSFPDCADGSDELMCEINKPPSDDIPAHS
Procedure: FIGS. 1a and 1b show LRP six antibodies. (A) The amino acid sequences of the complementarity determining regions (CDR) of the heavy (H) and the light (L) chains are presented. The antibodies were grouped into unique epitopes as determined by competitive ELISAs. (B) Single-point ELISAs were performed on 96-well Maxisorb immune plates coated with the […] of mouse LRP5, mouse LRP6 and human LRP6 chimeras. The plates were incubated with the purified Fab or IgG1 at the concentrations indicated followed by incubation with horseradish peroxidase (HRP)-conjugated anti-kappa antibody. The wells were washed eight times followed by incubation with 3,3′,5,5′-tetramethylbenzidine/H₂O₂ peroxidase (TMB) substrate for 5-10 min. The reaction was stopped by adding one M H₃PO₄ and the absorbance was measured spectrometrically at 450 nm in a microtiter plate reader.
(§1) The full length IgG1s were purified and a single-point ELISA was done to determine the specificity of the antibodies. […] A multipoint competitive ELISA was used to determine the relative affinities of the antibodies to the recombinant antigen.

[3] = target: T2, recombinant human LRP6-Fc chimera (human, UniProt O75581 20-1370); assay: multipoint competitive ELISA; human LRP6-Fc chimera titrated against OD450 of the IgG1; non-linear regression
T2 construct: extracellular domain; also called human LRP6 chimera; not shown: Fc part of the chimera
T2 sequence (looked up): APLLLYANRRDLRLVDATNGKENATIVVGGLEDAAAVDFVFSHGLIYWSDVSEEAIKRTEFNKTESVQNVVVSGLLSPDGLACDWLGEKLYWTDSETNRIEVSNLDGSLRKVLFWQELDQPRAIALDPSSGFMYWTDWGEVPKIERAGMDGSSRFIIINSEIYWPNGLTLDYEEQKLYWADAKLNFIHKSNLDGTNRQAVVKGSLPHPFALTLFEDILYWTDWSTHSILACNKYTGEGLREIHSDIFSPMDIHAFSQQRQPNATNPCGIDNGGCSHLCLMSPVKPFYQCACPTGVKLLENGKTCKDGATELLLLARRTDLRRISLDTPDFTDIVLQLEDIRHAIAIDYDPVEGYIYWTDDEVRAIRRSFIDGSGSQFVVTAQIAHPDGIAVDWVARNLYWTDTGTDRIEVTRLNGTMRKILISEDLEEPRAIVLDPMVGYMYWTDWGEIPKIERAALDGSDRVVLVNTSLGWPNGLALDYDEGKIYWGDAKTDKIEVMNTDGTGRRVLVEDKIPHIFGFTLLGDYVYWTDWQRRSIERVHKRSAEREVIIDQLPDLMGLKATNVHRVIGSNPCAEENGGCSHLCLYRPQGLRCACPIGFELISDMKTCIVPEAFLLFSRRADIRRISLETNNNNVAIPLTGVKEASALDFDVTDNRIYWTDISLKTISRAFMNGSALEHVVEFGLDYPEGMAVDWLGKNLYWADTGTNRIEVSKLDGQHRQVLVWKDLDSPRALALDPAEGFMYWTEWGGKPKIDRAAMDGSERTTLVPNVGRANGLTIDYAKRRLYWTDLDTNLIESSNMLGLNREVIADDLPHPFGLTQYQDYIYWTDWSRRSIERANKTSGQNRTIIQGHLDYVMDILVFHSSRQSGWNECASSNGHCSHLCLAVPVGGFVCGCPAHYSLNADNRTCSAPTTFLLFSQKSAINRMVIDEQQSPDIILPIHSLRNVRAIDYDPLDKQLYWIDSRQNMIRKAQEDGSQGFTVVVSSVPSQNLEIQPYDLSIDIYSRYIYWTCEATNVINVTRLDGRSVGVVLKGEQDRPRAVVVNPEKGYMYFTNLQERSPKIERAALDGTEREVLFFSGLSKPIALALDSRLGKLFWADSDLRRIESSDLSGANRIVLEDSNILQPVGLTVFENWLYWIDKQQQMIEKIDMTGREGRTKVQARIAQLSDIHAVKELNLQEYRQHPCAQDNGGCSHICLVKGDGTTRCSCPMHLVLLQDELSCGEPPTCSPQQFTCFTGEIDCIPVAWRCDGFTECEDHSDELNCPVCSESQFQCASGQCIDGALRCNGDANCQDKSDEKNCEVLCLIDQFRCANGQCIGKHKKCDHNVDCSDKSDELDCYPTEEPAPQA
Procedure: as §1
Table 3 reports the IC50 of LRP6 antibodies as determined by competitive ELISA. The log of the recombinant human LRP6-Fc chimera concentration (x-axis) was plotted against the OD450 reading of the antibody (y-axis). The IC50 was determined by non-linear regression analysis.

binding result [2]: no binding
B3: LRP6-B6 IgG1 antibody (antibody, V domains shown)
VH: EVQLVESGGGLVQPGGSLRLSCAASGFNISYSSIHWVRQAPGKGLEWVASISPYYGYTYYADSVKGRFTISADTSKNTAYLQMNSLRAEDTAVYYCARSSYFPWFSAMDYWGQGTLVTVSS
VL: DIQMTQSPSSLSASVGDRVTITCRASQSVSSAVAWYQQKPGKAPKLLIYSASSLYSGVPSRFSGSRSGTDFTLTISSLQPEDFATYYCQQYYFLITFGQGTKVEIKR
notes: Tested as purified full length IgG1

binding result [2]: no binding
IC50 [3]: 9.58 nM
B5: LRP6-A1 IgG1 antibody (antibody, V domains shown)
VH: EVQLVESGGGLVQPGGSLRLSCAASGFNLSYYYIHWVRQAPGKGLEWVASIYSSYGYTSYADSVKGRFTISADTSKNTAYLQMNSLRAEDTAVYYCARTVRGSKKPYFSGWAMDYWGQGTLVTVSS
VL: B3 VL with F93W, L94P
notes: Tested as purified full length IgG1; Synthetic antibody on a human framework, detected with anti-kappa antibody

binding result [2]: no binding
IC50 [3]: 6.03 nM
B6: LRP6-G9 IgG1 antibody (antibody, V domains shown)
VH: B5 VH with L29I, S30Y, Y31S, G56S
VL: B3 VL with F93W, L94P
notes: as for B3

More lines, now with the values behind:

B1: LRP6-A10 IgG1 antibody (antibody, V domains shown)
VH: B3 VH with S50Y, P53S, S99A, S100H, F105A, S106G
VL: DIQMTQSPSSLSASVGDRVTITCRASQSVSSAVAWYQQKPGKAPKLLIYSASSLYSGVPSRFSGSRSGTDFTLTISSLQPEDFATYYCQQYSWGPFTFGQGTKVEIKR
notes: as for B3
functional IC50, Wnt3aCM-stimulated TOPflash reporter activity (MDAMB231, U2OS, H23 cells) [1]: < 0.3 nM
binding result [2]: no binding
IC50 [3]: 6.29 nM

B2: LRP6-A10 Fab protein (Fab, V domains shown)
VH: B3 VH with S50Y, P53S, S99A, S100H, F105A, S106G
VL: B1 VL
functional IC50, Wnt3aCM-stimulated TOPflash reporter activity (MDAMB231 cells) [1]: < 0.3 nM

B4: LRP6-G3 IgG1 antibody (antibody, V domains shown)
VH: B5 VH with L29I, Y31S
VL: B3 VL with F93W, L94P
notes: as for B3
binding result [2]: no binding
IC50 [3]: 10.2 nM
